Test results as given in IntAct's records for PubMed 11734542.

B1: Protein phosphatase EYA1 (Mus musculus), P97767 (parent)
chain: MEMQDLTSPHSRLSGSSESPSGPKLDSSHINSTSMTPNGTEVKTEPMSSSEIASTAADGSLDSFSGSALGSSSFSPRPAHPFSPPQIYPSKSYPHILPTPSSQTMAAYGQTQFTTGMQQATAYATYPQPGQPYGISSYGALWAGIKTESGLSQSQSPGQTGFLSYGTSFGTPQPGQAPYSYQMQGSSFTTSSGLYSGNNSLTNSSGFNSSQQDYPSYPGFGQGQYAQYYNSSPYPAHYMTSSNTSPTTPSTNATYQLQEPPSGVTSQAVTDPTAEYSTIHSPSTPIKETDSERLRRGSDGKSRGRGRRNNNPSPPPDSDLERVFIWDLDETIIVFHSLLTGSYANRYGRDPPTSVSLGLRMEEMIFNLADTHLFFNDLEECDQVHIDDVSSDDNGQDLSTYNFGTDGFPAAATSANLCLATGVRGGVDWMRKLAFRYRRVKEIYNTYKNNVGGLLGPAKREAWLQLRAEIEALTDSWLTLALKALSLIHSRTNCVNILVTTTQLIPALAKVLLYGLGIVFPIENIYSATKIGKESCFERIIQRFGRKVVYVVIGDGVEEEQGAKKHAMPFWRVSSHSDLMALHHALELEYL
partner: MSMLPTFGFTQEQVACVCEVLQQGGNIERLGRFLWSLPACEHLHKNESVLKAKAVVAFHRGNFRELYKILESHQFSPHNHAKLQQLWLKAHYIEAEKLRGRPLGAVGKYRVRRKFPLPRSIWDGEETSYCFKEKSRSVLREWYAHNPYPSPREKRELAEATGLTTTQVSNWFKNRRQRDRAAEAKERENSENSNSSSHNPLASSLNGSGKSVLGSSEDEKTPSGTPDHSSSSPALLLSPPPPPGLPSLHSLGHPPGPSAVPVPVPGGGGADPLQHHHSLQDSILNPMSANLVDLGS

Variants of: B1
Conditions: with six2_mouse Six2, Q62232

Effect of a mutation on the interaction, decreasing interaction:
MEMQDLTSPHSRLSGSSESPSGPKLDSSHINSTSMTPNGTEVKTEPMSSSEIASTAADGSLDSFSGSALGSSSFSPRPAHPFSPPQIYPSKSYPHILPTPSSQTMAAYGQTQFTTGMQQATAYATYPQPGQPYGISSYGALWAGIKTESGLSQSQSPGQTGFLSYGTSFGTPQPGQAPYSYQMQGSSFTTSSGLYSGNNSLTNSSGFNSSQQDYPSYPGFGQGQYAQYYNSSPYPAHYMTSSNTSPTTPSTNATYQLQEPPSGVTSQAVTDPTAEYSTIHSPSTPIKETDSERLRRGSDGKSRGRGRRNNNPSPPPDSDLERVFIWDLDETIIVFHSLLTGSYANRYGRDPPTSVSLGLRMEEMIFNLADTHLFFNDLEECDQVHIDDVSSDDNGQDLSTYNFGTDGFPAAATSANLCLATGVRSGVDWMRKLAFRYRRVKEIYNTYKNNVGGLLGPAKREAWLQLRAEIEALTDSWLTLALKALSLIHSRTNCVNILVTTTQLIPALAKVLLYGLGIVFPIENIYSATKIGKESCFERIIQRFGRKVVYVVIGDGVEEEQGAKKHAMPFWRVSSHSDLMALHHALELEYL [G425S]
MEMQDLTSPHSRLSGSSESPSGPKLDSSHINSTSMTPNGTEVKTEPMSSSEIASTAADGSLDSFSGSALGSSSFSPRPAHPFSPPQIYPSKSYPHILPTPSSQTMAAYGQTQFTTGMQQATAYATYPQPGQPYGISSYGALWAGIKTESGLSQSQSPGQTGFLSYGTSFGTPQPGQAPYSYQMQGSSFTTSSGLYSGNNSLTNSSGFNSSQQDYPSYPGFGQGQYAQYYNSSPYPAHYMTSSNTSPTTPSTNATYQLQEPPSGVTSQAVTDPTAEYSTIHSPSTPIKETDSERLRRGSDGKSRGRGRRNNNPSPPPDSDLERVFIWDLDETIIVFHSLLTGSYANRYGRDPPTSVSLGLRMEEMIFNLADTHLFFNDLEECDQVHIDDVSSDDNGQDLSTYNFGTDGFPAAATSANLCLATGVRGGVDWMRKLAFRYRRVKEIYNTYKNNVGGLLGPAKREAWLQLRAEIEALTDSWLTLALKALPLIHSRTNCVNILVTTTQLIPALAKVLLYGLGIVFPIENIYSATKIGKESCFERIIQRFGRKVVYVVIGDGVEEEQGAKKHAMPFWRVSSHSDLMALHHALELEYL [S486P]
MEMQDLTSPHSRLSGSSESPSGPKLDSSHINSTSMTPNGTEVKTEPMSSSEIASTAADGSLDSFSGSALGSSSFSPRPAHPFSPPQIYPSKSYPHILPTPSSQTMAAYGQTQFTTGMQQATAYATYPQPGQPYGISSYGALWAGIKTESGLSQSQSPGQTGFLSYGTSFGTPQPGQAPYSYQMQGSSFTTSSGLYSGNNSLTNSSGFNSSQQDYPSYPGFGQGQYAQYYNSSPYPAHYMTSSNTSPTTPSTNATYQLQEPPSGVTSQAVTDPTAEYSTIHSPSTPIKETDSERLRRGSDGKSRGRGRRNNNPSPPPDSDLERVFIWDLDETIIVFHSLLTGSYANRYGRDPPTSVSLGLRMEEMIFNLADTHLFFNDLEECDQVHIDDVSSDDNGQDLSTYNFGTDGFPAAATSANLCLATGVRGGVDWMRKLAFRYRRVKEIYNTYKNNVGGLLGPAKREAWLQLRAEIEALTDSWLTLALKALSLIHSRTNCVNILVTTTQRIPALAKVLLYGLGIVFPIENIYSATKIGKESCFERIIQRFGRKVVYVVIGDGVEEEQGAKKHAMPFWRVSSHSDLMALHHALELEYL [L504R]
MEMQDLTSPHSRLSGSSESPSGPKLDSSHINSTSMTPNGTEVKTEPMSSSEIASTAADGSLDSFSGSALGSSSFSPRPAHPFSPPQIYPSKSYPHILPTPSSQTMAAYGQTQFTTGMQQATAYATYPQPGQPYGISSYGALWAGIKTESGLSQSQSPGQTGFLSYGTSFGTPQPGQAPYSYQMQGSSFTTSSGLYSGNNSLTNSSGFNSSQQDYPSYPGFGQGQYAQYYNSSPYPAHYMTSSNTSPTTPSTNATYQLQEPPSGVTSQAVTDPTAEYSTIHSPSTPIKETDSERLRRGSDGKSRGRGRRNNNPSPPPDSDLERVFIWDLDKTIIVFHSLLTGSYANRYGRDPPTSVSLGLRMEEMIFNLADTHLFFNDLEECDQVHIDDVSSDDNGQDLSTYNFGTDGFPAAATSANLCLATGVRGGVDWMRKLAFRYRRVKEIYNTYKNNVGGLLGPAKREAWLQLRAEIEALTDSWLTLALKALSLIHSRTNCVNILVTTTQLIPALAKVLLYGLGIVFPIENIYSATKIGKESCFERIIQRFGRKVVYVVIGDGVEEEQGAKKHAMPFWRVSSHSDLMALHHALELEYL [E330K]
